Experimental data taken from patent US20210214430A1 (Regeneron, published 2021).
Blank lines part the entries; values can stand above or below the binder they belong to.

B4: recombinant VEGF MiniTrap (dimer) MT5 (receptor)
chain: SDTGRPFVEMYSEIPEIIHMTEGRELVIPCRVTSPNITVTLKKFPLDTLIPDGKRIIWDSRKGFIISNATYKEIGLLTCEATVNGHLYKTNYLTHRQTNTIIDVVLSPSHGIELSVGEKLVLNCTARTELNVGIDFNWEYPSSKHQHKKLVNRDLKTQSGSEMKKFLSTLTIDGVTRSDQGLYTCAASSGLMTKKNSTFVRVHEKDKTHTCPPCPAPELLG
notes: also called VEGF MiniTrap 5

How the values were obtained:
[1] = target: B4; assay: affinity chromatography on immobilized mAb2, low-pH eluate on non-reducing SDS-PAGE
Experimental: (§1) The column was activated by washing the columns with 6 column volumes (CV) of 1 mM ice-cold hydrochloric acid at a flow rate not exceeding 1 mL/min. […] The columns were washed with 18 column volumes of 0.5 M sodium acetate, 0.5 M NaCl, pH 4.0 and the open sites were blocked with 18 column volumes of 0.5 M Tris-HCl, 0.5 M NaCl pH 8.3 (the wash was carried out in the following order: 6 column volumes of 0.5 M Tris-HCl, 0.5 M NaCl, pH 8.3; 6 column volumes of 0.5 M sodium acetate (sodium acetate: JT Baker, Cat #3470-01), 0.5 M NaCl, pH 4.0; 6 column volumes of 0.5 M Tris, pH 8.3; incubate the column for 30 minutes at room temperature; 6 column volumes of 0.5 M sodium acetate buffer, 0.5 M NaCl pH 4.0; 6 column volumes of 0.5 M Tris-HCl, 0.5 NaCl, pH 8.3 and 6 column volumes of 0.5 M sodium acetate buffer, 0.5 M NaCl pH 4.0). The columns were stored in DPBS, pH 7.5. The five columns evaluated are designated as column 1 (comprising VEGF₁₆₅), column 2 (comprising mAb1), column 3 (comprising mAb2), column 4 (comprising mAb3) and column 5 (comprising mAb4).
(§2) SDS-PAGE analysis of the eluted fractions from the three columns (column 1, column 2, and column 3) was performed. […]

[2] = target: B4; assay: affinity chromatography on immobilized mAb1, low-pH eluate on non-reducing SDS-PAGE
Experimental: as §1, §2

[3] = target: B4; assay: affinity chromatography, antibody coupled to HiTrap NHS-activated column (column 4)
VEGF165 = target: T1, VEGF165 (human, UniProt P15692 207-395); assay: SPR, Biacore T200, 25 C; MT5 captured on amine-coupled mAb1, VEGF165 injected at 0.03-2 nM; 1:1 Langmuir fit; conditions: loading solution before affinity chromatography
T1 construct: also called hVEGF165
T1 sequence (P15692 other isoform, or with tags, fused parts or gaps limits assumed): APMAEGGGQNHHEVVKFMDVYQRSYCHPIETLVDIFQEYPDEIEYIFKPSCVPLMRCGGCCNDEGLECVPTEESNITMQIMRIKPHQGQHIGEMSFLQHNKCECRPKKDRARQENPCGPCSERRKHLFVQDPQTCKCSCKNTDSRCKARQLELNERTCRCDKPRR
Experimental: All binding studies were performed in 10 mM HEPES, 150 mM NaCl, 3 mM EDTA, and 0.05% v/v Surfactant Tween-20, pH 7.4 (HBS-ET) running buffer at 25° C. The Biacore sensor surface was first derivitized by amine coupling with a mAb 1 to capture MT5.
Briefly, the eluates from the columns and loading solution were diluted into an HBS-EP (Biacore) buffer and injected across the immobilized protein matrices at a capture level of ˜70 RUs. The VEGF₁₆₅ was then injected at a flow rate of 50 μL/min. Equivalent concentration of analyte was simultaneously injected over an untreated reference surface to serve as blank sensorgrams for subtraction of bulk refractive index background. The sensor chip surface was regenerated between cycles with two 5-min injections of 10 mM Glycine, at 25 μL/min. The resultant experimental binding sensorgrams were then evaluated using the BIA evaluation 4.0.1 software to determine kinetic rate parameters. Datasets for each sample were fit to the 1:1 Langmuir model. For these studies, binding and dissociation data were analyzed under the Global Fit Analysis protocol while selecting fit locally for maximum analyte binding capacity (RU) or Rmax attribute. In this case, the software calculated a single dissociation constant (kd), association constant (ka), and affinity constant (Kd). The equilibrium dissociation constant is KD=kd/ka. […] The dissociative half-lives (t½) were calculated from the kinetic rate constants as: t_{1/2}=ln(2)/60*[…]. Binding kinetic parameters for MT5 to VEGF₁₆₅ obtained from before and after the affinity chromatography production at 25° C. are shown in Table 7-6.

binding result [1]: binds
B1: mAb2 (a mouse anti-VEGFR1 mAb human IgG1) (antibody, V domains shown)
VH: EVQLVESGGDLVKPGGSLKLSCAASGFTFSDSGMSWVRQTPDKRLEWVATISSGGGYTYYSDSVEGRFTISRDNANNTLFLQMSSLKSEDTAMFYCARLGNYGGYYGMDYWGQGTSVTVSS
VL: DIQMTQSPSSLSASLGGKVTITCKTSQDSNKYIAWYQHKPGKGPRLLIHYTSTLQPGIPSRFSGSGSGRDYSFSISNLEPEDIATYYCLQYDNLWTFGGGTKLEIKR
notes: also called column 3

binding result [2]: binds
B2: mAb1 (a mouse anti-VEGFR1 mAb human IgG1) (antibody)
heavy: not shown
light: DIQMTQSPSSLSASLGGKVTITCTTSQDSNNYIAWYQHKPGKGPRLLIHYASTLQPGIPSRFSGSGSGRDYSFSISNLEPEDIATYFCLQYDYLWTFGGGTKLELKRTVAAPSVFIFPPSDEQLKSGTASVVCLLNNFYPREAKVQWKVDNALQSGNSQESVTEQDSKDSTYSLSSTLTLSKADYEKHKVYACEVTHQGLSSPVTKSFNRGEC
notes: Also amine-coupled to the Biacore chip to capture MT5

binding result [3]: binds
B3: mAb3 (a mouse anti-VEGFR1 mAb mouse IgG1) (antibody)
heavy: EVQLVESGGDLVKPGGSLKLSCAASGFTFSSSGMSWVRQTPDKRLEWVATITSGGSYTYYPDSVKGRFTISRDNAKNTLYLQMSSLKSEDTAMFYCARLGNYGGYYAMDYWGQGTSVTVSSAKTTPPSVYPLAPGSAAQTNSMVTLGCLVKGYFPEPVTVTWNSGSLSSGVHTFPAVLQSDLYTLSSSVTVPSSTWPSETVTCNVAHPASSTKVDKKIVPRDCGCKPCICTVPEVSSVFIFPPKPKDVLTITLTPKVTCVVVDISKDDPEVQFSWFVDDVEVHTAQTQPREEQFNSTFRSVSELPIMHQDWLNGKEFKCRVNSAAFPAPIEKTISKTKGRPKAPQVYTIPPPKEQMAKDKVSLTCMITDFFPEDITVEWQWNGQPAENYKNTQPIMDTDGSYFVYSKLNVQKSNWEAGNTFTCSVLHEGLHNHHTEKSLSHSPGK
light: DIQMTQSPSSLSASLGGKVTITCTTSQDSNNYIAWYQHKPGKGPRLLIHYASTLQPGIPSRFSGSGSGRDYSFSISNLEPEDIATYFCLQYDYLWTFGGGTKLELKRADAAPTVSIFPPSSEQLTSGGASVVCFLNNFYPKDINVKWKIDGSERQNGVLNSWTDQDSKDSTYSMSSTLTLTKDEYERHNSYTCEATHKTSTSPIVKSFNRGEC
notes: also called column 4

Binder: B4
Kd (VEGF165): 1.84 pM
koff (VEGF165): 1.74e-05 s⁻¹
kon (VEGF165): 9.44e+06 M⁻¹ s⁻¹
t1/2 (dissociative half-life) (VEGF165): 11.1 h
